From patent US20210301021A1 (NANJING GENSCRIPT BIOTECH, published 2021)

T1: CTLA-4 on the functional cells of the Promega anti-CTLA-4 blocking assay kit (UniProt P16410 36-223, limits assumed)
T1 sequence (looked up): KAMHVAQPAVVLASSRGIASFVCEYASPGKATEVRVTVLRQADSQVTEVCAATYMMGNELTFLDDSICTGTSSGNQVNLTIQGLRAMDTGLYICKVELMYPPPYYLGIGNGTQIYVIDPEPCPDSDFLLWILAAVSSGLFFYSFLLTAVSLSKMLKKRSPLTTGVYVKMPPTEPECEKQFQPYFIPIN

T2: CTLA4/His (human, UniProt P16410 36-161)
T2 construct: not shown: His tag
T2 sequence (looked up): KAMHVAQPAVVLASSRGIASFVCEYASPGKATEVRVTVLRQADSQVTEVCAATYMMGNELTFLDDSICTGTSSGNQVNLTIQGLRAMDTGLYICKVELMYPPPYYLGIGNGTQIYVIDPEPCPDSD


Legend:
[1] = target: T1, CTLA-4 on the functional cells of the …; assay: cell-based or functional assay
CTLA4/His [2] = target: T2, CTLA4/His; assay: SPR, Biacore 8K, antibody captured on the chip, antigen as analyte, 1:1 binding model; Table 4, analyte CTLA4/His; Rmax 38.2, Chi^2 5.48E-02
CTLA4/His [3] = target: T2, CTLA4/His; assay: SPR, Biacore 8K, antibody captured on the chip, antigen as analyte, 1:1 binding model
CTLA4/His [4] = target: T2, CTLA4/His; assay: SPR (Biacore), untreated control of the oxidation pressure test, analyte CTLA4/His
CTLA4/His [5] = target: T2, CTLA4/His; assay: SPR, Biacore 8K, antibody captured on the chip, antigen as analyte, 1:1 binding model; chimeric antibody, analyte CTLA4/His (Table 4)

Binder	EC50 (µg/ml), luciferase reporter, Promega anti-CTLA-4 blocking assay (CD80/CD86 aAPC/Raji cells with functional cells expressing CTLA-4) [1] [µg/mL]	kon (CTLA4/His [2]) [M⁻¹ s⁻¹]	Kd (CTLA4/His [3]) [nM]	koff (CTLA4/His [3]) [s⁻¹]	kon (CTLA4/His [3]) [M⁻¹ s⁻¹]	Kd (CTLA4/His [4]) [nM]	koff (CTLA4/His [4]) [s⁻¹]	kon (CTLA4/His [4]) [M⁻¹ s⁻¹]	koff (CTLA4/His [5]) [s⁻¹]
AH01672 humanized anti-human CTLA4 monoclonal antibody (human IgG1/kappa) (antibody, V domains shown, also called AH1672) VH: QVQLVQSGAEVKKPGASVKVSCKASGYTFTSYWINWVKQAPGQGLEWMGRIAPGSGTTYYNEMFTGRVTMTRDTSTSTAYMELSSLRSEDTAVYYCARGDYFDYWDQGTMVTVSS VL: DIQLTQSPSFLSASVGDRVTITCSASKSVSYIHWYQQKPGKAPKLLIYDTSTLASGVPPRFSGSGSGPEFSLTISSLQPEDFATYYCQQRTTYPLTFGGGTKLEIK	7.31	690000	≤ 0.0145	≤ 1e-05	–	–	–	–	–
Chimeric antibody (antibody, V domains shown, also called Chimeric IgG) VH: QVHLQQSGDVLVKPGASVNLSCKASGYTFTSYWINWIKQRPGQGLEWIGRIAPGSGTTYYNEMFTGKATLTVVTSSTTAYIQLSSLSFEDSAVYFCARGDYFDYWDQGTTLTVSS VL: QIVLTQSPAIMSASPGGKVTITCSASKSVSYIHWFQQKPGTSPKLLIYDTSTLASGVPPRFSGSGSGPSYSLTISRMEAEDAATYYCQQRTTYPLTFGGGTKLEVR	3.96	–	≤ 0.023	–	434000	0.0219	8.16e-06	372000	≤ 1e-05
